This is an account of results in patent publication US20120021993A1 (AJOU UNIVERSITY INDUSTRY ACADEMIC COOPERATION FOUNDATION, published 2012).

Assay [1] has as its target T1, human-derived cell death receptor 4, extracellular domain (amino acid residues 1-216), 6xHis tag (human, UniProt O00220 24-239).
T1 construct: extracellular domain; Expressed in E. coli; biotinylated for sorting and flow cytometry; residues 1-216; also called DR4; TRAIL-receptor 1
Briefly: affinity ELISA, target coated on the plate. As for the experimental part:
(§1) In order to measure the affinity and cross reactivity of the anti-DR4, -DR5 and -TNFα protein scaffold variants based on the Kringle domain structure to the target molecules, an enzyme-linked immunosorbent assay (ELISA) was performed. The target molecules DR4, DR5, TNFα and DcR1, DcR2 were attached to a 96 well EIA/RIA plate (COSTARCorning In., USA) by its reaction at 37° C. for 1 hour, and washed three times with 0.1% PBST (0.1% Tween20, pH 7.4, 137 mM NaCl, 10 mM Phosphate, 2.7 mM KCl, SIGMA-ALDRICH Co., USA) for 10 minutes. The target molecules were attached for 1 hour to a 96 well EIA/RIA plate in 1% PBSB (1% BSA, pH 7.4, 137 mM NaCl, 10 mM Phosphate, 2.7 mM KCl, SIGMA-ALDRICH Co., USA), and then washed three times with 0.1% PBST (0.1% Tween 20, pH 7.4, 137 mM NaCl, 10 mM Phosphate, 2.7 mM KCl, SIGMA-ALDRICH Co., USA) for 10 minutes. Then, the anti-DR4, -DR5 and -TNFα Kringle domain variants were bound, and washed three times with 0.1% PBST for 10 minutes. The anti-DR4, -DR5 and -TNFα Kringle domain variants were primarily bound to mouse-derived anti-c-myc 9e10 mAb (Ig Therapy, Korea), and secondarily bound to alkaline phosphatase (AP)-conjugated anti-mouse mAb (Sigma). Each of the Kringle domain variants was reacted with […] (pNPP, Sigma-aldrich Co., USA) and quantified at an absorbance of 405 nm.
(§2) In order to analyze the affinities of the Fc-fused anti-DR4, -DR5 and -TNFα Kringle domains to target molecules, the affinities of the Fc-fused anti-DR4, -DR5 and -TNFα Kringle domains to the target molecules were analyzed using ELISA, as described in Example 8.
On the technique in general: ELISA stands for enzyme-linked immunosorbent assay.

For another assay, the target named is cell surface DR4 (human, UniProt O00220 24-468). Briefly: cell-based or functional assay.
In assay [2] the target is T2, human-derived cell death receptor 5, extracellular domain (amino acid residues 1-130), 6xHis tag (human, UniProt O14763 56-210).
T2 construct: extracellular domain; Expressed in E. coli; biotinylated for sorting and flow cytometry; also called DR5; TRAIL-receptor 2
Briefly: affinity ELISA, target coated on the plate. The protocol: as §1, §2

Another assay deals with cell surface DR5 (human, UniProt O14763 56-440). Kind of assay: cell-based or functional assay.
Assay [3] has as its target T1, human-derived cell death receptor 4, …. Kind of assay: ELISA, coated target, single binder concentration not given, A405. As for the experimental part:
as §1

In assay [4] the target is T3, TNFα, extracellular domain (amino acid residue 1-157), 6xHis tag (human, UniProt P01375 57-233).
T3 construct: extracellular domain; Expressed in E. coli; The printed residues 1-157 seem to count on the soluble form, not on the precursor; also called human TNFα; tumor necrosis factor alpha
Briefly: ELISA, coated target, A405. As for the experimental part:
as §1

Assay [5] addresses T4, DcR1 (UniProt O14798 26-221, limits assumed).
T4 sequence (looked up): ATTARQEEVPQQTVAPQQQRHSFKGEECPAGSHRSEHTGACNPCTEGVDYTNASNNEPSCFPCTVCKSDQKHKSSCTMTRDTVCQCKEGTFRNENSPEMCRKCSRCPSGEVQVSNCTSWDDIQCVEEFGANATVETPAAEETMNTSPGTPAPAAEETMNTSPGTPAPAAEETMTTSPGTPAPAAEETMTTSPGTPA
Kind of assay: yeast display, flow cytometry MFI [panel KD413]. (In general: Flow cytometry measures light scatter and fluorescence of single cells or particles in a stream.)

The target of assay [6] is T5, DcR2 (UniProt Q9UBN6 56-211, limits assumed).
T5 sequence (looked up): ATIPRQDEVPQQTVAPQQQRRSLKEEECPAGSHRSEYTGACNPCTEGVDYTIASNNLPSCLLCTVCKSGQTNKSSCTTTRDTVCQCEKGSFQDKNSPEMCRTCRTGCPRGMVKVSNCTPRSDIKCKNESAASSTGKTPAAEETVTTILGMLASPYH
Kind of assay: yeast display, flow cytometry MFI [panel KD413].

Assay [7] concerns the target T1, human-derived cell death receptor 4, …. Kind of assay: ELISA, homo-dimer against monomer.
Assay [8] shares this target. Kind of assay: ELISA, target coated on the plate.
Assay [9] has as its target T4, DcR1. Kind of assay: yeast display, flow cytometry MFI [panel KD548].
The target of assay [10] is T5, DcR2. Kind of assay: yeast display, flow cytometry MFI [panel KD548].
The target of assay [11] is T4, DcR1. Briefly: yeast display, flow cytometry MFI [panel KD415].
Assay [12] deals with T5, DcR2. Briefly: yeast display, flow cytometry MFI [panel KD415].
The target of assay [13] is T1, human-derived cell death receptor 4, …. Kind of assay: ELISA, coated target, A405.

Numbering of substitutions follows the chain as printed.

T3 sequence (P01375 other isoform, or with tags, fused parts or gaps limits assumed): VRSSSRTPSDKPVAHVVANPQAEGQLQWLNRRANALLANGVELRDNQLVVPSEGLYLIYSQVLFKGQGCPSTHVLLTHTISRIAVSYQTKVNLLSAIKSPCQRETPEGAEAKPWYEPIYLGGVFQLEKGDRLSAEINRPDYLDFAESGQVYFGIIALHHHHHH

B1: KD415-Fc (Fc fusion)
chain: CTRSKGDEYDGHKHKTNRGLRCQHWPGTKPHFHGDKIKDRHGFRLKKNYCRNPDPQDQPWCFTNRHQHKNELCNQPRC
notes: Disulfide-linked dimer from Pichia pastoris; also called Fc-fused anti-DR4 Kringle domain KD415; not shown: Fc domain region from a hinge of human immunoglobulin G1
As for B1, in assay [1], the affinity stood at 53 nM. Also, in the assay with cell surface DR4, the “EC50 (a concentration of protein causing a 50% cell death), HL60, MTT assay” value came out at 60 nM and the “EC50 (a concentration of protein causing a 50% cell death), Jurkat, MTT assay” value came out at 80 nM.

B2: KD548-Fc (Fc fusion)
chain: CHQTQGPKYDGNKDKTHKGHKCQSWTKNRPHHHGNKIENEDENRFQKNYCRNPDNKHEPWCFTHGHRDKHELCHEPRC
notes: Disulfide-linked dimer from Pichia pastoris; also called Fc-fused anti-DR5 Kringle domain KD548; not shown: Fc domain region from a hinge of human immunoglobulin G1
The molecule B2 showed an affinity in [2] of 58 nM. Further, in the assay with cell surface DR5, the “EC50 (a concentration of protein causing a 50% cell death), HL60, MTT assay” value came out at 220 nM.

B3: KDT02 (designed binder)
chain: CAQDGGPGYDGDKHGTHGGHECQDWTKDGPHIHGFRDQFRDEDQHGKNYCRNPDSQHGPWCFTNEDEHRNELCHEPRC
notes: Soluble monomer from Pichia pastoris; also called KRT02; not shown: C-terminal myc tag-6xHis tag of pPICZaA
For orientation: EC50 (read off the curve) means the midpoint of the concentration-response curve. A low value points to greater potency. With B3, the binding result in assay [3] is “no binding”. For the same molecule, the “EC50 (read off the curve)” value in assay [4] is around 2000 nM.

B4: L1234 (KD413) (designed binder)
chain: CAKAEGTGYDGHEHKTHKGIRCQNWYKSKPHYHGHQFRDGDKIKNKKNYCRNPDRELRPWCFTTDPNKRWELCDIPRC
notes: also called KD413L1234
B4: the binding result in the assay with DcR1 [5] and with DcR2 [6] was “no binding” throughout.

B5: KD506-Fc (Fc fusion)
chain: CPEDRGHEYDGDGDKTNRGHGCQYWDQNKPHHHGHRDKDKFKHRIKKNYCRNPDYETGPWCFTNRYRNKNELCHEPRC
notes: Disulfide-linked dimer from Pichia pastoris; also called Fc-fused anti-DR5 Kringle domain KD506; not shown: Fc domain region from a hinge of human immunoglobulin G1
Regarding B5, the affinity in assay [2] worked out at 43 nM. Also, in the assay with cell surface DR5, the “EC50 (a concentration of protein causing a 50% cell death), HL60, MTT assay” value is 230 nM and the “EC50 (a concentration of protein causing a 50% cell death), Jurkat, MTT assay” value was found to be 80 nM.

B6: anti-DR4 KD413 homo-dimer (designed binder)
chain: CAKAEGTGYDGHEHKTHKGIRCQNWYKSKPHYHGHQFRDGDKIKNKKNYCRNPDPRAGPWCFTHGNRNRYELCNQPRCGGGGSGGGGSGGGGSGGGGSCAKAEGTGYDGHEHKTHKGIRCQNWYKSKPHYHGHQFRDGDKIKNKKNYCRNPDPRAGPWCFTHGNRNRYELCNQPRC
As to B6, in assay [7], the “fold increase of affinity against the monomer” value was around 10 fold. In addition, the affinity value in [8] worked out at 43 nM.

B7: L1234 (KD548) (designed binder)
chain: CHQTQGPKYDGNKDKTHKGHKCQSWTKNRPHHHGNKIENEDENRFQKNYCRNPDRELRPWCFTTDPNKRWELCDIPRC
notes: also called KD548L1234
Turning to B7, the binding result in the assay with DcR1 [9] and in the assay with DcR2 [10] was “no binding” throughout.

B8: KDT01 (designed binder)
chain: CYEDKGPQYDGDEYGTHKGHRCQNWDENRPHPHGIGHQHKHQVKDGKNYCRNPDDETEPWCFTHKDKYGHELCNRPRC
notes: Soluble monomer from Pichia pastoris; also called KRT01; not shown: C-terminal myc tag-6xHis tag of pPICZaA
Turning to B8, the binding result in assay [3] is listed as “no binding”. For the same molecule, the “EC50 (read off the curve)” value in assay [4] is around 2000 nM.

B9: KD413L56 (designed binder)
chain: CMHCSGENYDGKISKTMSGLECQAWDSQSPHAHGYIPSKFPNKNLKKNYCRNPDPRAGPWCFTHGNRNRYELCDIPRC
Take B9: the binding result with DcR1 [5] and in the assay with DcR2 [6] was “no binding” in each case.

B10: L5 (KD413) (designed binder)
chain: B9 chain with H64T, G65D, N66P, R67N, N68K, Y70W
notes: also called KD413L5
Take B10: the binding result with DcR1 [5] and in the assay with DcR2 [6] was “no binding” each time.

B11: KD415L567 (designed binder)
chain: CMHCSGENYDGKISKTMSGLECQAWDSQSPHAHGYIPSKFPNKNLKKNYCRNPDPQDQPWCFTNRHQHKNELCNQPRC
As to B11, the binding result with DcR1 [11] and with DcR2 [12] was “no binding” in each case.

B12: L567 (KD413) (designed binder)
chain: B9 chain with D74N, I75Q
notes: also called KD413L567
Regarding B12, the binding result with DcR1 [5] and in the assay with DcR2 [6] was “no binding” in each case.

B13: L5 (KD415) (designed binder)
chain: B11 chain with N64T, R65D, H66P, Q67N, H68K, K69R, N70W, N74D, Q75I
notes: also called KD415L5
B13: the binding result with DcR1 [11] and with DcR2 [12] was “no binding” each time.

B14: L567 (KD548) (designed binder)
chain: CMHCSGENYDGKISKTMSGLECQAWDSQSPHAHGYIPSKFPNKNLKKNYCRNPDNKHEPWCFTHGHRDKHELCHEPRC
notes: also called KD548L567; not shown: Aga2p display anchor, linker and c-myc tag of the pCTCON yeast display vector
Consider B14, for which the binding result with DcR1 [9] and with DcR2 [10] was “no binding” in each case.

B15: KD548L56 (designed binder)
chain: B14 chain with H74D, E75I
As to B15, the binding result with DcR1 [9] and with DcR2 [10] was “no binding” in each case.

B16: L56 (KD415) (designed binder)
chain: B11 chain with N74D, Q75I
notes: also called KD415L56
Turning to B16, the binding result with DcR1 [11] and with DcR2 [12] was “no binding” each time.

B17: KD413-KD415 hetero-dimer (designed binder, not shown: small tags and cut ends)
chain: CAKAEGTGYDGHEHKTHKGIRCQNWYKSKPHYHGHQFRDGDKIKNKKNYCRNPDPRAGPWCFTHGNRNRYELCNQPRCGGGGSGGGGSGGGGSGGGGSCTRSKGDEYDGHKHKTNRGLRCQHWPGTKPHFHGDKIKDRHGFRLKKNYCRNPDPQDQPWCFTNRHQHKNELCNQPRC
As to B17, the “EC50 (read off the curve)” value in assay [13] is around 30 nM.

B18: anti-DR4 KD415 homo-dimer (designed binder)
chain: CTRSKGDEYDGHKHKTNRGLRCQHWPGTKPHFHGDKIKDRHGFRLKKNYCRNPDPQDQPWCFTNRHQHKNELCNQPRCGGGGSGGGGSGGGGSGGGGSCTRSKGDEYDGHKHKTNRGLRCQHWPGTKPHFHGDKIKDRHGFRLKKNYCRNPDPQDQPWCFTNRHQHKNELCNQPRC
Regarding B18, the “fold increase of affinity against the monomer” value in assay [7] is around 10 fold. In addition, the affinity value in assay [8] is 87 nM.

B19: KD413-Fc (Fc fusion)
chain: CAKAEGTGYDGHEHKTHKGIRCQNWYKSKPHYHGHQFRDGDKIKNKKNYCRNPDPRAGPWCFTHGNRNRYELCNQPRC
notes: Disulfide-linked dimer from Pichia pastoris; also called Fc-fused anti-DR4 Kringle domain KD413; not shown: Fc domain region from a hinge of human immunoglobulin G1
In the case of B19, the affinity in assay [1] was 60 nM. Besides, in the assay with cell surface DR4, the “EC50 (a concentration of protein causing a 50% cell death), Jurkat, MTT assay” value worked out at 60 nM.
